In this series the target is JAK2 immunoprecipitated from BMMC lysates (tyrosine-phosphorylated), Q62120.

This is an account of results in patent US20030175270.

JAK2 immunoprecipitated from BMMC lysates (tyrosine-phosphorylated), Q62120, sequence (Q62120 whole entry): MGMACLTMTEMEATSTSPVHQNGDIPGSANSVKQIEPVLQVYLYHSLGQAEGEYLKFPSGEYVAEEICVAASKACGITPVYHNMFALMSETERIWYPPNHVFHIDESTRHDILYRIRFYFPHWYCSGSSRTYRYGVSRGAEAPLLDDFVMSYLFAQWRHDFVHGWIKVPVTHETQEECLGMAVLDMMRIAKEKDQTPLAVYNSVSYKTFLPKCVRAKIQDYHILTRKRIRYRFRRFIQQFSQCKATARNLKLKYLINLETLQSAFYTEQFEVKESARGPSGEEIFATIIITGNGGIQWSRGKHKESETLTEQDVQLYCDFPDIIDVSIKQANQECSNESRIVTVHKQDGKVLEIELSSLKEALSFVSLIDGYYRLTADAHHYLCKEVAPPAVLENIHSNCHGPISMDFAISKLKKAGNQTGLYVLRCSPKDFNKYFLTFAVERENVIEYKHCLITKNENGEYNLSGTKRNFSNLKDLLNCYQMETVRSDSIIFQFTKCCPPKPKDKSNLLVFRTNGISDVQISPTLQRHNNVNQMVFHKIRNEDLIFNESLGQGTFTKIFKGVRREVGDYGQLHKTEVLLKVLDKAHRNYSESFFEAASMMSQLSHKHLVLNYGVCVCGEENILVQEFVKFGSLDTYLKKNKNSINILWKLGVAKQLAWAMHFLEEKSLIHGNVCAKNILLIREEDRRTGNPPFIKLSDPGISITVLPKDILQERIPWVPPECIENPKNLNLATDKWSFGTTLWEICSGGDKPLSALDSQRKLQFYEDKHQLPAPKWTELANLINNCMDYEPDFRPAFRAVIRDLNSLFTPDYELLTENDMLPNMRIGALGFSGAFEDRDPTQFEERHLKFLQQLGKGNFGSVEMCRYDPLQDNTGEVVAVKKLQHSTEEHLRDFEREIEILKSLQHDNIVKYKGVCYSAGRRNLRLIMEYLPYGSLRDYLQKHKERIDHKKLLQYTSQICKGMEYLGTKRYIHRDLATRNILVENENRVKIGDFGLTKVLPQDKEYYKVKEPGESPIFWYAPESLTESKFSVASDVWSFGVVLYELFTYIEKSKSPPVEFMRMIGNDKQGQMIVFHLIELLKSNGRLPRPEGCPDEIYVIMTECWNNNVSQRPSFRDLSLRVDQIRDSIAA

B1: human non-receptor tyrosine PTPase TC-PTP (protein)
chain: MPTTIEREFEELDTQRRWQPLYLEIRNESHDYPHRVAKFPENRNRNRYRDVSPYDHSRVKLQNAENDYINASLVDIEEAQRSYILTQGPLPNTCCHFWLMVWQQKTKAVVMLNRIVEKESVKCAQYWPTDDQEMLFKETGFSVKLLSEDVKSYYTVHLLQLENINSGETRTISHFHYTTWPDFGVPESPASFLNFLFKVRESGSLNPDHGPAVIHCSAGIGRSGTFSLVDTCLVLMEKGDDINIKQVLLNMRKYRMGLIQTPDQLRFSYMAIIEGAKCIKGDSSIQKRWKELSKEDLSPAFDHSPNKIMTEKYNGNR
B1: the “tyrosine dephosphorylation in vitro (phosphatase assay)” value was “the human non-receptor tyrosine PTPase TC-PTP and the bacterial lambda PTPase did not dephosphorylate JAK2 in vitro”.

B2: bacterial lambda PTPase (protein)
chain: MRYYEKIDGSKYRNIWVVGDLHGCYTNLMNKLDTIGFDNKKDLLISVGDLVDRGAENVECLELITFPWFRAVRGNHEQMMIDGLSERGNVNHWLLNGGGWFFNLDYDKEILAKALAHKADELPLIIELVSKDKKYVICHADYPFDEYEFGKPVDHQQVIWNRERISNSQNGIVKEIKGADTFIFGHTPAVKPLKFANQMYIDTGAVFCGNLTLIQVQGEGA
Take B2: the “tyrosine dephosphorylation in vitro (phosphatase assay)” value is “the human non-receptor tyrosine PTPase TC-PTP and the bacterial lambda PTPase did not dephosphorylate JAK2 in vitro”.
